According to the supplement of paper PMC10126150:
± gives the standard deviation of the averaged measurements.

tested on: ATP; test: switch fluorescence ratio, 500 uM ATP over buffer (Cy3 cluster intensity, sum of 5 cycles each) (fold (ratio)); higher = stronger signal-on switching upon ATP binding; sequences stand for … in TCGTCGGCAGCGTCAGATGTGTATAAGAGACAGTTTTTTTTTTTTTTTTTTTTTTTTT…TC; conditions: aptamer strand: ATP DNA aptamer (quencher-CACCTGGGGGAGTATTGCGGAGGAAGG + anchor), 100 nM annealed; ATP concentration: 500 uM
In short: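 Cy3-labelled switching-strand clusters on a modified Illumina MiSeq flow-cell were annealed to 100 nM quencher-labelled ATP aptamer and imaged first in selection buffer, then after 15 min with 500 uM ATP at 22 °C. NaOH stripping and re-annealing separated each of five buffer/ATP cycles, and clusters outside 100-1000 RFU were excluded. The fluorescence ratio sums target-cycle Cy3 intensity over buffer-cycle Cy3 intensity per cluster and averages it per switch-domain sequence.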
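Further: ATP exposure 15 min at 22 °C before imaging.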

Sequence | switch fluorescence ratio
TGGTTGAGGC | 1.01 ± 0.021
TGGTTGATAG | 0.9916 ± 0.0065
TGGTTGCCTG | 0.993 ± 0.056
TGGTTGCTTG | 1.01 ± 0.034
TGGTTGGAAG | 0.987 ± 0.016
TGGTTGGCTC | 0.985 ± 0.042
TGGTTGGGTA | 0.997 ± 0.018
TGGTTGTTAG | 1.012 ± 0.0073
TGGTTTACTA | 1.009 ± 0.0096
TGGTTTATAC | 1.32 ± 0.43
TGGTTTATGG | 1.01 ± 0.02
TGGTTTATTT | 0.976 ± 0.01
TGGTTTCTTG | 0.963 ± 0.042
TGGTTTGGCC | 0.97 ± 0.018
TGGTTTGGTT | 0.986 ± 0.04
TGGTTTGTGT | 0.981 ± 0.018
TGGTTTTAAT | 0.973 ± 0.028
TGGTTTTAGA | 0.999 ± 0.016
TGGTTTTAGG | 0.99 ± 0.029
TGGTTTTCGG | 0.993 ± 0.041
TGGTTTTCTT | 0.992 ± 0.03
TGGTTTTGGT | 0.987 ± 0.025
TGGTTTTGT | 1.03 ± 0.066
TGGTTTTTAG | 1.05 ± 0.033
TGTAACTCAT | 1 ± 0.011

Sequence | switch fluorescence ratio
TGTAAGACCA | 1.01 ± 0.012
TGTAAGGAAC | 1.26 ± 0.35
TGTAAGGATG | 0.996 ± 0.013
TGTAAGGGTG | 0.974 ± 0.065
TGTAATATGG | 1.1 ± 0.14
TGTAATCCGC | 1.28 ± 0.021
TGTAATGTGA | 1.07 ± 0.14
TGTACGTTGG | 1.26 ± 0.37
TGTACTTTGG | 1.01 ± 0.022
TGTAGCGGGG | 0.9942 ± 0.0048
TGTAGGAGGG | 0.993 ± 0.01
TGTAGGAGTG | 1.25 ± 0.36
TGTAGGGAGG | 0.966 ± 0.053
TGTAGGGGGG | 0.973 ± 0.034
TGTAGGGTAG | 0.958 ± 0.017
TGTAGGGTGC | 1.07 ± 0.044
TGTAGTCCGT | 0.982 ± 0.0055
TGTAGTGAGT | 0.959 ± 0.037
TGTAGTGTTT | 1.03 ± 0.044
TGTATAAATT | 0.9679 ± 0.0048
TGTATAATGT | 0.985 ± 0.029
TGTATCATGT | 0.99 ± 0.037
TGTATGAGCA | 1.02 ± 0.011
TGTATGGGAA | 0.9352 ± 0.0043
TGTATTAAAG | 0.983 ± 0.029

Sequence | switch fluorescence ratio
TGTATTTAGA | 1.02 ± 0.032
TGTATTTGGG | 0.991 ± 0.013
TGTATTTTTT | 1.05 ± 0.093
TGTCAATTGG | 0.984 ± 0.021
TGTCAGAAAT | 0.992 ± 0.02
TGTCCTAGAG | 1.02 ± 0.024
TGTCCTCAGC | 1.51 ± 0.14
TGTCCTTAAA | 0.9898 ± 0.0039
TGTCGCGTAG | 0.993 ± 0.034
TGTCGCTCGT | 0.992 ± 0.043
TGTCGTCGGG | 0.995 ± 0.026
TGTCGTTGGA | 0.998 ± 0.043
TGTCGTTTTT | 1.01 ± 0.039
TGTCTAGTTA | 0.972 ± 0.0041
TGTCTCCCTT | 1.007 ± 0.0074
TGTGAAAGTG | 0.982 ± 0.041
TGTGAATCAG | 1.018 ± 0.0075
TGTGACAGTT | 1.09 ± 0.1
TGTGACGGAC | 1.12 ± 0.015
TGTGACTCGG | 0.978 ± 0.016
TGTGAGACTT | 1.01 ± 0.052
TGTGAGGCGT | 0.993 ± 0.0036
TGTGATTAGG | 0.996 ± 0.03
TGTGCCAGGG | 1.06 ± 0.024
TGTGCCTGTT | 1.008 ± 0.0018

Sequence | switch fluorescence ratio
TGTGGAAAGA | 0.992 ± 0.054
TGTGGCAAAA | 1.015 ± 0.01
TGTGGCACGG | 0.966 ± 0.018
TGTGGCATGA | 0.9736 ± 0.0058
TGTGGCCCAC | 0.989 ± 0.017
TGTGGCGGTT | 1.015 ± 0.0077
TGTGGGAAAA | 1.02 ± 0.048
TGTGGGATCG | 0.97 ± 0.02
TGTGGGGGAA | 1.2 ± 0.31
TGTGGGGGTC | 0.965 ± 0.042
TGTGGGGTGG | 0.999 ± 0.025
TGTGGGTCGG | 0.968 ± 0.026
TGTGGGTGGT | 1.01 ± 0.018
TGTGGTAGCC | 1.022 ± 0.0018
TGTGGTATGG | 1.008 ± 0.0065
TGTGGTGTGC | 1.01 ± 0.022
TGTGGTTGCG | 1.01 ± 0.017
TGTGGTTTAC | 0.978 ± 0.017
TGTGTAAGAG | 0.9867 ± 0.0063
TGTGTAAGGT | 1.02 ± 0.025
TGTGTATGGC | 1.12 ± 0.19
TGTGTCGGTC | 1.07 ± 0.085
TGTGTGCGCG | 1.02 ± 0.043
TGTGTGGTGT | 0.993 ± 0.036
TGTGTTAAGG | 0.973 ± 0.011
